Here are results for one molecule from patent US20100297135A1 (CRC FOR ASTHMA AND AIRWAYS, published 2010).

Assay [1] addresses human GM-CSF alanine mutant C89A (human, UniProt P04141 18-144). The assay is described as follows: semi-quantitative ELISA; GM-CSF polypeptide coated in serial dilutions (x axis = log coating concentration, no unit), 4K21 fixed at 12.5 ng/ml, goat anti-mouse IgG-HRP, absorbance. Here is the method:
(§1) The binding analysis of 4K21 to the mutant GM-CSF polypeptides M1 to M5b was performed using a semi-quantitative ELISA. Approximately equal amounts of GM-CSF were used to coat a Maxisorb (Nunc. Cat #464718) 384 well plate and serially diluted 2-fold to the bottom of the plate (16 times). Coating was performed overnight at room temperature. Plates were washed 3 times with wash buffer (1×PBS, 0.05% tween) and blocked for 1 hr at 37° C. with PBS, 1% BSA solution. Plates were then washed 3 times with wash buffer. […] The plates were washed 3 times with wash buffer then secondary antibody, HRP conjugated goat anti mouse IgG (Jackson Cat #115-036-062) for 4K21 and rabbit anti rat IgG (BD, cat#P0450) for the BD commercial antibody was added to the wells at 1/5000 dilution and incubated at 37° C. for 1 hr. Plates were washed 4 times following which BD OptEIA TMB substrate (Cat #555214), prepared according to the manufacturer's instructions, was added to the wells and incubated at room temperature for 10 minutes. The reaction was stopped with 1M sulphuric acid and the plate read on a Tecan plate reader at 450 nm with reference filter at 620 nm.
(§2) Binding analysis was carried out essentially as described above with the exception of the method of quantitation. The BD antibody was used to quantitate the relative expression of the alanine mutants as none of these mutants were in the M2 binding epitope of the BD antibody. […] The binding was then compared to 4K21 used at 12.5 ng/ml with the secondary antibody being goat anti-mouse IgG-HRP antibody (Cat #115-036-062) at 1/2500 dilution.

The next assay deals with T1, Q100A.
T1 construct: also called human GM-CSF alanine mutant Q100A
T1 sequence (single chain, as listed by the source Q100A Q100A): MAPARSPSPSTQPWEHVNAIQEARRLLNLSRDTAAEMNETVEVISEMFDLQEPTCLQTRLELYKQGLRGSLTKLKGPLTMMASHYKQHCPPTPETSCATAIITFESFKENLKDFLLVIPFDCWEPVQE
Described as above. How it is done: as §1, §2

The target in the next assay is T2, T99A.
T2 construct: also called human GM-CSF alanine mutant T99A; the BD entry of the legend box prints 'T97A'
T2 sequence (single chain, as listed by the source T99A T99A): as the sequence (single chain, as listed by the source Q100A Q100A) above, with T99A, A100Q counted along it
Described as above. Here is the method: as §1, §2

The target in assay [2] is human GM-CSF alanine mutant I101A (human, UniProt P04141 18-144). The description is as above. How it is done:
as §1, §2

The target of another assay is T3, S96A.
T3 construct: also called human GM-CSF alanine mutant S96A
T3 sequence (single chain, as listed by the source S96A S96A): as the sequence (single chain, as listed by the source Q100A Q100A) above, with S96A, A100Q counted along it
The assay is described as above. Here is the method:
as §1, §2

The next assay concerns the target T4, murine GM-CSF (murine, UniProt P01587 18-141).
T4 construct: also called wild type murine GM-CSF
T4 sequence (looked up): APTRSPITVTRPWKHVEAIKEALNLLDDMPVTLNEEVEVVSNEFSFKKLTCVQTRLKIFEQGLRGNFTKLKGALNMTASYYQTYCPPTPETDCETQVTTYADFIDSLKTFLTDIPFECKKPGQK
The assay can be described thus: semi-quantitative ELISA (data not shown).

Assay [3] addresses T5, wild type human GM-CSF (human, UniProt P04141 18-144). The assay can be described thus: cell-based or functional assay.
In assay [4] the target is T6, human GM-CSF mutant M2 (R24 to M37 replaced by murine sequence) (human).
T6 construct: The flanking ranges are derived from the stated region
T6 sequence (P04141 other isoform, or with tags, fused parts or gaps mutant): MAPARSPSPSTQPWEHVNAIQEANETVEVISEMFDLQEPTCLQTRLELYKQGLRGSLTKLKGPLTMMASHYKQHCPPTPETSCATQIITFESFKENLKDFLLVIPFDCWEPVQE
The assay can be described thus: semi-quantitative ELISA; GM-CSF polypeptide coated in 2-fold dilutions (x axis = coating concentration), 4K21 fixed at 12.5 ng/ml, goat anti-mouse IgG-HRP, absorbance 450 nm. Here is the method:
as §1

Assay [5] addresses T5, wild type human GM-CSF. The assay is described as follows: SPR (Biacore), human GM-CSF coated on CM5 chip, antibody injected. How it is done: (§3) Recombinant human GM-CSF was coated onto a CM5 chip to determine the binding kinetics of 4K21 mAb. An uncoated flow cell was used as a reference. The antibody, prepared in HBS-EP at concentrations of 66.7 nM to 4.17 nM with 2-fold serial dilution, was injected for 2 minutes with a stabilisation time of 10 minutes and dissociation time of 15 minutes. The BIACore kinetic analysis wizard was run to determine each antibody's association (ka [1/Ms]), dissociation (kd[1/s]) and affinity (KD [nM]) to GM-CSF. […] Moreover, binding of 4K21 mAb to human GM-CSF is highly specific.

The target in assay [6] is T5, wild type human GM-CSF. The assay is described as follows: SPR (Biacore), human GM-CSF coated on CM5 chip, antibody injected; GM-CSF coated onto CM5 chip, antibody injected. How it is done: as §3
The target of assay [7] is T5, wild type human GM-CSF. The assay can be described thus: SPR (Biacore), alternative method of antibody capture; alternative method of antibody capture.

A value given as a limit tells only on which side of the number the result lay.

T5 sequence (P04141 other isoform, or with tags, fused parts or gaps limits assumed): as the sequence (single chain, as listed by the source Q100A Q100A) above, with A100Q counted along it
Chain of human GM-CSF alanine mutant I101A (P04141 other isoform, or with tags, fused parts or gaps I101A I101A limits assumed): as the sequence (single chain, as listed by the source Q100A Q100A) above, with A100Q, I101A counted along it
Chain of human GM-CSF alanine mutant C89A (P04141 other isoform, or with tags, fused parts or gaps C89A C89A limits assumed): as the sequence (single chain, as listed by the source Q100A Q100A) above, with C89A, A100Q counted along it

B1: murine anti-human GM-CSF monoclonal antibody 4K21-O11-E14 (antibody, V domains shown)
VH: EVQLVESGGGLVKSGGSLKLSCAASGFAFSAYDMSWVRQTPEKRLELVAYISSGGSSFYYPDTVKGRFTISRDNAKNTLYLQMSSLKSEDTAMYYCTRHLGFDYWGQGTTLTVSS
VL: DVVMTQTPLSLPVSLGDQASISCRSSQSLVNSNGNTYLHWFLQKPGQSPKLLIYKVSNRFSGVPDRFSGSGSGTDFTLKISRVEAEDLGVYFCSQSTHVPPTFGGGTKLEIK
notes: Murine monoclonal antibody from a hybridoma (ECACC 07051601), detected with anti-mouse IgG; also called 4K21 mAb; mAb 4K21
B1: the binding result in assay [1] is reported as “binds”; in the assay with Q100A, “binds”; with T99A, “binds”; in [2], “binds”; with S96A, “binds”; in the assay with murine GM-CSF, “no binding”. Moreover, the “IC50, neutralisation of human GM-CSF dependent TF-1 cell growth (3H-thymidine)” value with wild type human GM-CSF [3] was approximately 308 pM. The “EC50 (read off the curve)” value in assay [4] is approximately 20 µg/mL. This molecule registered a Ka with wild type human GM-CSF [5] of more than 5.9e+09 M⁻¹. Moreover, the Kd was less than 170 pM in the assay with wild type human GM-CSF [5], approximately 200 pM in the assay with wild type human GM-CSF [6] and approximately 430 pM in the assay with wild type human GM-CSF [7]. Further, the koff with wild type human GM-CSF [5] is less than 1e-05 s⁻¹. For the same molecule, the kon with wild type human GM-CSF [5] stood at 59000 M⁻¹ s⁻¹.
